Data reported in article PMC11446282.

Test system: PP2A-B55α
Assay: Single alanine mutational scan, YFP-tagged interactors immunoprecipitated from HeLa cells, Western blot
Format: binding, human
Experimental: Standard cloning techniques were used throughout. Point mutations were introduced by whole plasmid polymerase chain reaction (PCR). All constructs were fully sequenced. Synthetic DNA was purchased from GeneArt, Life Technologies and cloned into pcDNA5/FRT/TO (Invitrogen) expression vector containing YFP, resulting in the indicated YFP fusion proteins. These constructs were transiently transfected into HeLa cells 24 hours before harvesting cells. Cells were lysed in lysis buffer [50 mM tris-HCl (pH 7.5), 50 mM NaCl, 1 mM EDTA, 1 mM […], and 0.1% NP-40]. Complexes were immunoprecipitated at 4°C in lysis buffer with green fluorescent protein (GFP)–Trap (ChromoTek) and washed in lysis buffer. Precipitated protein complexes were washed three times in lysis buffer, eluted in 2× SDS sample buffer, and subjected to Western blotting or MS as indicated.

[1] = single alanine mutant of YFP-tagged CDCA4

Molecule | Experimental % binding (single alanine mutant of YFP-tagged AMOTL2) [%] | Experimental % binding [1] [%]
AMOTL2 R14: AMOTL2, R14 to alanine (protein, UniProt Q9Y2J4 1-779, looked up, variant R14A) Angiomotin-like protein 2: MRTLEDSSGTVLHALIQEQLRYGNLTETRTLLAIQQQALRGGAGTGGTGSPQASLEILAPEDSQVLQQATRQEPQGQEHQGGENHLAENTLYRLCPQPSKGEELPTYEEAKAHSQYYAAQQAGTRPHAGDRDPRGAPGGSRRQDEALRELRHGHVRSLSERLLQLSLERNGARAPSHMSSSHSFPQLARNQQGPPLRGPPAEGPESRGPPPQYPHVVLAHETTTAVTDPRYRARGSPHFQHAEVRILQAQVPPVFLQQQQQYQYLQQSQEHPPPPHPAALGHGPLSSLSPPAVEGPVSAQASSATSGSAHLAQMEAVLRENARLQRDNERLQRELESSAEKAGRIEKLESEIQRLSEAHESLTRASSKREALEKTMRNKMDSEMRRLQDFNRDLRERLESANRRLASKTQEAQAGSQDMVAKLLAQSYEQQQEQEKLEREMALLRGAIEDQRRRAELLEQALGNAQGRAARAEEELRKKQAYVEKVERLQQALGQLQAACEKREQLELRLRTRLEQELKALRAQQRQAGAPGGSSGSGGSPELSALRLSEQLREKEEQILALEADMTKWEQKYLEERAMRQFAMDAAATAAAQRDTTLIRHSPQPSPSSSFNEGLLTGGHRHQEMESRLKVLHAQILEKDAVIKVLQQRSRRDPGKAIQGSLRPAKSVPSVFAAAAAGTQGWQGLSSSERQTADAPARLTTDRAPTEEPVVTAPPAAHAKHGSRDGSTQTEGPPDSTSTCLPPEPDSLLGCSSSQRAASLDSVATSRVQDLSDMVEILI | 15 | 
CDCA4 R58: CDCA4, R58 to alanine (protein, UniProt Q9BXL8 1-241, looked up, variant R58A) Cell division …: MFARGLKRKCVGHEEDVEGALAGLKTVSSYSLQRQSLLDMSLVKLQLCHMLVEPNLCASVLIANTVRQIQEEMTQDGTWRTVAPQAAERAPLDRLVSTEILCRAAWGQEGAHPAPGLGDGHTQGPVSDLCPVTSAQAPRHLQSSAWEMDGPRENRGSFHKSLDQIFETLETKNPSCMEELFSDVDSPYYDLDTVLTGMMGGARPGPCEGLEGLAPATPGPSSSCKSDLGELDHVVEILVET |  | 37
CDCA4 T65: CDCA4, T65 to alanine (protein, UniProt Q9BXL8 1-241, looked up, variant T65A) Cell division …: MFARGLKRKCVGHEEDVEGALAGLKTVSSYSLQRQSLLDMSLVKLQLCHMLVEPNLCRSVLIANAVRQIQEEMTQDGTWRTVAPQAAERAPLDRLVSTEILCRAAWGQEGAHPAPGLGDGHTQGPVSDLCPVTSAQAPRHLQSSAWEMDGPRENRGSFHKSLDQIFETLETKNPSCMEELFSDVDSPYYDLDTVLTGMMGGARPGPCEGLEGLAPATPGPSSSCKSDLGELDHVVEILVET |  | 28
CDCA4 L61: CDCA4, L61 to alanine (protein, UniProt Q9BXL8 1-241, looked up, variant L61A) Cell division …: MFARGLKRKCVGHEEDVEGALAGLKTVSSYSLQRQSLLDMSLVKLQLCHMLVEPNLCRSVAIANTVRQIQEEMTQDGTWRTVAPQAAERAPLDRLVSTEILCRAAWGQEGAHPAPGLGDGHTQGPVSDLCPVTSAQAPRHLQSSAWEMDGPRENRGSFHKSLDQIFETLETKNPSCMEELFSDVDSPYYDLDTVLTGMMGGARPGPCEGLEGLAPATPGPSSSCKSDLGELDHVVEILVET |  | 28
CDCA4 N64: CDCA4, N64 to alanine (protein, UniProt Q9BXL8 1-241, looked up, variant N64A) Cell division …: MFARGLKRKCVGHEEDVEGALAGLKTVSSYSLQRQSLLDMSLVKLQLCHMLVEPNLCRSVLIAATVRQIQEEMTQDGTWRTVAPQAAERAPLDRLVSTEILCRAAWGQEGAHPAPGLGDGHTQGPVSDLCPVTSAQAPRHLQSSAWEMDGPRENRGSFHKSLDQIFETLETKNPSCMEELFSDVDSPYYDLDTVLTGMMGGARPGPCEGLEGLAPATPGPSSSCKSDLGELDHVVEILVET |  | 57
CDCA4 S59: CDCA4, S59 to alanine (protein, UniProt Q9BXL8 1-241, looked up, variant S59A) Cell division …: MFARGLKRKCVGHEEDVEGALAGLKTVSSYSLQRQSLLDMSLVKLQLCHMLVEPNLCRAVLIANTVRQIQEEMTQDGTWRTVAPQAAERAPLDRLVSTEILCRAAWGQEGAHPAPGLGDGHTQGPVSDLCPVTSAQAPRHLQSSAWEMDGPRENRGSFHKSLDQIFETLETKNPSCMEELFSDVDSPYYDLDTVLTGMMGGARPGPCEGLEGLAPATPGPSSSCKSDLGELDHVVEILVET |  | 64
CDCA4 V43: CDCA4, V43 to alanine (protein, UniProt Q9BXL8 1-241, looked up, variant V43A) Cell division …: MFARGLKRKCVGHEEDVEGALAGLKTVSSYSLQRQSLLDMSLAKLQLCHMLVEPNLCRSVLIANTVRQIQEEMTQDGTWRTVAPQAAERAPLDRLVSTEILCRAAWGQEGAHPAPGLGDGHTQGPVSDLCPVTSAQAPRHLQSSAWEMDGPRENRGSFHKSLDQIFETLETKNPSCMEELFSDVDSPYYDLDTVLTGMMGGARPGPCEGLEGLAPATPGPSSSCKSDLGELDHVVEILVET |  | 81
CDCA4 L42: CDCA4, L42 to alanine (protein, UniProt Q9BXL8 1-241, looked up, variant L42A) Cell division …: MFARGLKRKCVGHEEDVEGALAGLKTVSSYSLQRQSLLDMSAVKLQLCHMLVEPNLCRSVLIANTVRQIQEEMTQDGTWRTVAPQAAERAPLDRLVSTEILCRAAWGQEGAHPAPGLGDGHTQGPVSDLCPVTSAQAPRHLQSSAWEMDGPRENRGSFHKSLDQIFETLETKNPSCMEELFSDVDSPYYDLDTVLTGMMGGARPGPCEGLEGLAPATPGPSSSCKSDLGELDHVVEILVET |  | 129
CDCA4 I62: CDCA4, I62 to alanine (protein, UniProt Q9BXL8 1-241, looked up, variant I62A) Cell division …: MFARGLKRKCVGHEEDVEGALAGLKTVSSYSLQRQSLLDMSLVKLQLCHMLVEPNLCRSVLAANTVRQIQEEMTQDGTWRTVAPQAAERAPLDRLVSTEILCRAAWGQEGAHPAPGLGDGHTQGPVSDLCPVTSAQAPRHLQSSAWEMDGPRENRGSFHKSLDQIFETLETKNPSCMEELFSDVDSPYYDLDTVLTGMMGGARPGPCEGLEGLAPATPGPSSSCKSDLGELDHVVEILVET |  | 7
CDCA4 V60: CDCA4, V60 to alanine (protein, UniProt Q9BXL8 1-241, looked up, variant V60A) Cell division …: MFARGLKRKCVGHEEDVEGALAGLKTVSSYSLQRQSLLDMSLVKLQLCHMLVEPNLCRSALIANTVRQIQEEMTQDGTWRTVAPQAAERAPLDRLVSTEILCRAAWGQEGAHPAPGLGDGHTQGPVSDLCPVTSAQAPRHLQSSAWEMDGPRENRGSFHKSLDQIFETLETKNPSCMEELFSDVDSPYYDLDTVLTGMMGGARPGPCEGLEGLAPATPGPSSSCKSDLGELDHVVEILVET |  | 47
CDCA4 V66: CDCA4, V66 to alanine (protein, UniProt Q9BXL8 1-241, looked up, variant V66A) Cell division …: MFARGLKRKCVGHEEDVEGALAGLKTVSSYSLQRQSLLDMSLVKLQLCHMLVEPNLCRSVLIANTARQIQEEMTQDGTWRTVAPQAAERAPLDRLVSTEILCRAAWGQEGAHPAPGLGDGHTQGPVSDLCPVTSAQAPRHLQSSAWEMDGPRENRGSFHKSLDQIFETLETKNPSCMEELFSDVDSPYYDLDTVLTGMMGGARPGPCEGLEGLAPATPGPSSSCKSDLGELDHVVEILVET |  | 38
